Measured values from US20240279288A1, “APPLICATION OF PLANT JAZ PROTEINS AND DERIVED POLYPEPTIDES IN PREVENTION AND TREATMENT OF HUMAN AND ANIMAL TUMORS” (ANYANG INSTITUTE OF SINO-COTTON INDUSTRY INNOVATION, priority 2021, published 2024).

Experiments:
[1] = system: downstream genes of c-Myc in normal cell MCF10A; assay: RT-PCR of c-Myc downstream genes, MCF10A; type: cell-based, human
Description: Identification at the RNA level: RNA was extracted using RNA extraction kit (RNAprep Pure Polysaccharide Polyphenol Plant Total RNA Extraction Kit (DP441), manufacturer: TIANGEN BIOTECH (BEIJING) CO., LTD.), and then cDNA was obtained using two-step reverse transcription kit (a third-generation premix for two-step de-genomization and reverse transcription, Cat. No.: MR05201). cDNA as a template was added into a 96-well plate, with addition of SYBR®Green I chimeric dye (an antibody dye quantitative PCR premix, Cat. No.: MQ10101) and gene primers for three-step qPCR amplification. Finally, the relative gene expression was calculated based on the Ct value.
Wherein, the sequences of primers were as follows: […]

[2] = biological target: T1, NMYC (Homo sapiens, UniProt P04198); assay: Yeast two hybrid with NMYC; type: binding
T1 construct: with the full length of c-Myc and NMYC, respectively; expressed in transfected cells; host or cells: yeast Y2HGold
T1 sequence (P04198 1-464): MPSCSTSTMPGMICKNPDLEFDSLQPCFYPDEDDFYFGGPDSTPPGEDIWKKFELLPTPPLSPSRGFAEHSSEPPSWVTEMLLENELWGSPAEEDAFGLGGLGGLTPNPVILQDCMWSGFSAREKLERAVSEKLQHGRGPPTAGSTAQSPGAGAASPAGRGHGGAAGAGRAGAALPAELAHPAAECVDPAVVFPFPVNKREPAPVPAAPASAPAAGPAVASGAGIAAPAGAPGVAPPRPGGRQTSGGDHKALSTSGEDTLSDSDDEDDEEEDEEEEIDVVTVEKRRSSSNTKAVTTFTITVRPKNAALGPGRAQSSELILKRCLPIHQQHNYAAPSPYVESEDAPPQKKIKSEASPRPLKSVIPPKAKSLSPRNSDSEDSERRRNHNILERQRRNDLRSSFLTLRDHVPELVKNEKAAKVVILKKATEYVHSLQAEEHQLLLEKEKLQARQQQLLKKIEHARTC
Description: […]

B1: GhJAZ1: cotton JAZ1 protein, gene number Gh_A05G0260, sequence SEQ ID No. 4; prokaryotically expressed with His tag, about 30 KD (protein)
chain: MSSCSESTAMKPARSPEKPSFAQTCNLLSQYLKEKGSFGDLSLGMTCNVEANGTPVVPPPTMNLFPLNDKSDDVCGRNGGNPKNLTSMDLFPQQAGLASKDDSPNKLEPQTAPMTIFYGGQVIVFNDFPANKAKEIMLLASNSSSQSNNSFNPIPFTSSIARSPIESSIGVPPTSKPVHPAQRAVPGDLPIARRASLHRFLEKRKDRITAKAPYQINNSAAAPSLSGDNKSWLGLAAQSP
modifications: His tag
notes: prokaryotically expressed with His tag, about 30 KD
In the case of B1, the “expression of Bcl2 and MCM5” value [1] is reported as “significantly decreased but at a minor extent”, the “expression of P21C, CNB1, CCND1, and CCNE1” value ([1]; at a minor extent) is reported as “significantly increased” and the “interaction with NMYC” value [2] is reported as “interacted”.
